Measured values reported in article PMC11508141.

Molecular target: T1, DJ-1 protein with the 6X-His tag, Q99497
T1 chain: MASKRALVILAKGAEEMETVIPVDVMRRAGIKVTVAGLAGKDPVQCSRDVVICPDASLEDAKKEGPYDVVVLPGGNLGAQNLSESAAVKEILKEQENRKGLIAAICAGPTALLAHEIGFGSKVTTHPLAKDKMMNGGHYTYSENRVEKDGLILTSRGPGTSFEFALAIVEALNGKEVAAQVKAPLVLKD
Assay: cross-linking; purified DJ-1 treated with 25 mM DSS at 25 °C for 30 min, with or without P1 or P2, then SDS-PAGE (12% gel)
Settings: remark: other sources report otherwise

stoichiometry N: 2
B1: DJ-1 protein with the 6X-His tag, Q99497 1-189 (enzyme)
chain: MASKRALVILAKGAEEMETVIPVDVMRRAGIKVTVAGLAGKDPVQCSRDVVICPDASLEDAKKEGPYDVVVLPGGNLGAQNLSESAAVKEILKEQENRKGLIAAICAGPTALLAHEIGFGSKVTTHPLAKDKMMNGGHYTYSENRVEKDGLILTSRGPGTSFEFALAIVEALNGKEVAAQVKAPLVLKD
